In paper PMC3394720:

Target: MCMV nuclear capsids (murine cytomegalovirus (MCMV) | murine cytomegalovirus (MCMV), Smith strain)
Experiment: immunoelectron microscopy of purified nuclear capsids; nuclear capsids purified on a sucrose gradient from infected cells, adsorbed on grids, rabbit GFP antiserum and protein A-gold (10 nm); gold beads per capsid counted; WT capsids as background

S-GFP-SCP fusion protein expressed ectopically from recombinant MCMV
gold beads per capsid (anti-GFP immunogold) (gold beads per capsid): 15
